Data set [1] addresses T1, Aβ1-40 (Homo sapiens, UniProt P05067).
T1 construct: made in house; host or cells: E. coli
The data set is described as follows: Electron microscopy of Aβ1-40 pellets. Type of data set: biochemical. As to conditions: co-incubation with Aβ1-40, 1:1 molar ratio, 5 days. How it is done:
[…] Aβ1-40 was dissolved in 100% DMSO to 250 μM stock solution, which was diluted to working concentrations. For Thioflavin T (ThT) fluorescence measurements, 10 μl aliquots were removed at different time points, 10 μM ThT (Aldrich) added, and fluorescence was measured with a […] fluorescence plate reader (GE Healthcare), emission wavelength is 480 nm, excitation wavelength 440 nm. Measurements of ThT were done in duplicates. For analysis of soluble Aβ1-40 and ultrastructure of Aβ aggregates, aliquots were removed and centrifuged at 3300 g for 9 min. The supernatant was analyzed by SDS-PAGE and pellets were resuspended in 200 μl distilled water, 2 μl of the resuspension was added onto 200 mesh copper electron microscopy grids, stained with 2% uranyl acetate for 30 s, then left to dry at 20° C. A Hitachi H 7100 microscope operated at 75 kV was used for examination and photographing.

The next data set deals with T2, ABri23 (Homo sapiens, UniProt Q9Y287).
T2 construct: purchased Bachem (Bubendorf, Switzerland)
Nature of the data set: ESI-MS binding of Bri2(90-236) to ABri23. How it is done: Prior to electrospray ionization mass spectrometry (ESI-MS), purified Bri2(90-236) (SEQ ID NO: 2) was rebuffered into 10 mM ammonium acetate, pH 7.0, using spin columns with a 3 kDa cut-off limit (Nanosep, Pall Corp., East Hills, N.Y., USA). Protein and peptides were mixed at 22° C. directly before analysis at a final protein concentration of 20 μM and a final peptide concentration of 50 μM. Data was acquired using a QTOF Ultima API mass spectrometer (Waters, Milford, Mass., USA) equipped with a Z-spray source operated in the positive-ion mode. Samples were introduced via nano-electrospray using metal-plated borosilicate glass capillary needles (Proxeon, Denmark). The source temperature was 80° C., the capillary voltage 1.7 kV, and the cone and RF lens 1 potentials were 100 and 38 V, respectively. The mass spectrometer was operated in single-reflector mode at a resolution of 10 000 (full width half maximum definition), and the mass scale was calibrated using myoglobin. Scans were acquired at a rate of 1 scan per 2 sec between 500 and 4000 m/z. The collision gas was argon at 5.2×10^−5 mbar. Mass spectra were smoothed using the Waters MassLynx software.
All peptides, with the exception of KFFEYNGKKFFE (SEQ ID NO: 15), ABri23 (SEQ ID NO: 4) and Aβ1-40 (SEQ ID NO: 11), were purchased from Thermo Electron (Darmstadt, Germany). KFFEYNGKKFFE was purchased from Interactiva (Ulm, Germany) and Aβ1-40 and disulfide-linked ABri23 were from Bachem (Bubendorf, Switzerland).
Peptides, except for KFFEYNGKKFFE, ABri23 and Aβ1-40, were acetylated at the N-terminus and amidated at the C-terminus. […]
ESI-MS binding experiments were conducted to investigate whether Bri2(90-236) can bind the peptides ABri23 and Aβ1-40. For this purpose, Bri2(90-236) was mixed with ABri23, Aβ1-40, or an equimolar mixture of ABri23 and Aβ1-40, to a final concentration of 20 μM Bri2(90-236) and 50 μM of each peptide, and analyzed by ESI-MS. Mass spectra were recorded to investigate the presence and stoichiometry of protein-peptide complexes in the gas phase.

For data set [2], the target named is T1, Aβ1-40. The data set is described as follows: Thioflavin T fluorescence of Aβ1-40 aggregation (Example 3). As to conditions: 25 μM Aβ1-40, Aβ/Bri2(90-236) molar ratios 1:1, 2:1, 10:1, 37° C., pH 7.0, 24 h period studied. Type of data set: biochemical. How it is done: 25 μM of Aβ1-40 (SEQ ID NO: 11) was incubated with or without recombinant Bri2(90-236) (SEQ ID NO: 2) in 20 mM phosphate buffer, pH 7.0 at 37° C. for 48 h, with 200 rpm agitation, at Aβ/Bri2(90-236) molar ratios of 1:1, 2:1, or 10:1. Aβ1-40 was dissolved in 100% DMSO to 250 μM stock solution, which was diluted to working concentrations. For Thioflavin T (ThT) fluorescence measurements, 10 μl aliquots were removed at different time points, 10 μM ThT (Aldrich) added, and fluorescence was measured with a […] fluorescence plate reader (GE Healthcare), emission wavelength is 480 nm, excitation wavelength 440 nm. Measurements of ThT were done in duplicates.

The target in data set [3] is T1, Aβ1-40. The data set is described as follows: ThT aggregation of Aβ1-40, Bri2(90-236) added at different time points. The data set is classed as biochemical. The protocol:
Aggregation of 8 μM Aβ1-40 was monitored by recording the ThT fluorescence intensity as a function of time in 20 mM Na-phosphate, 200 μM EDTA, 20 μM ThT, 0.02% NaN3, 37° C. with 100 rpm shaking. 800 nM Bri2(90-236) was added from a concentrated stock before the start of the experiment or at different time points after starting the experiment ranging from 0.3 to 11.2 hours.

T1 sequence (P05067 672-711): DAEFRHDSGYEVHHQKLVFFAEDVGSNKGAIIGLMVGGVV

B1: Bri2(90-236): recombinant protein of residues 90-236 of human Bri2 (SEQ ID NO: 2), encompassing the Brichos domain, expressed in E. coli (protein, listed as Homo sapiens)
chain: GIKYIKDDVILNEPSADAPAALYQTIEENIKIFEEEEVEFISVPVPEFADSDPANIVHDFNKKLTAYLDLNLDKCYVIPLNTSIVMPPRNLLELLINIKAGTYLPQSYLIHEHMVITDRIENIDHLGFFIYRLCHDKETYKLQRRET
For the molecule B1, the “amount of Aβ1-40 amyloid-like fibrils in pellets (electron microscopy)” value with Aβ1-40 [1] is recorded as “lower amounts of fibrils”. In the data set with ABri23 (20 μM Bri2(90-236) with 50 μM Aβ1-40 and 50 μM ABri23 (equimolar), ESI-MS), the “Bri2(90-236)/ABri23 complex in competition experiment” value was “nearly all detectable recombinant Bri2(90-236) is complexed with ABri23”. Also, in the data set with ABri23 (20 μM Bri2(90-236), 50 μM oxidized ABri23 (2.5-fold molar excess), ESI-MS conditions), the “saturation of Bri2(90-236) with ABri23 (complex formation)” value was “near-complete saturation”. For the same molecule, the “binding preference ABri23 versus Aβ1-40” value in the data set with ABri23 (competition, both peptides at equimolar amounts, ESI-MS) is reported as “preferentially binds ABri23”. For the same molecule, the “ThT positive aggregates of Aβ1-40” value with Aβ1-40 [2] is reported as “no ThT positive aggregates were found”. In addition, the “effect on Aβ1-40 aggregation process” value with Aβ1-40 [3] (8 μM Aβ1-40, 800 nM Bri2(90-236) added anywhere during the lag time) was “can be delayed”; with Aβ1-40 [3] (8 μM Aβ1-40, 800 nM Bri2(90-236) added at the end of the transition), “no effect is seen”; with Aβ1-40 [3] (8 μM Aβ1-40, 800 nM Bri2(90-236) added close to the mid point of the transition), “reduce its speed and progress at lower rate”; with Aβ1-40 [3] (8 μM Aβ1-40, 800 nM Bri2(90-236) added during the early part of the sigmoidal transition), “appears to halt with no further growth of the ThT positive aggregates”.

These data come from US8785391B2, “Compound and method for treatment of alzheimer's disease and familial dementia” (Alphabeta AB, priority 2010, dated 2014).
